PMC10135305

Biological target: C-terminal domain of catalase-3 (CAT-3) of Neurospora crassa (TDC3) (Neurospora crassa) (UniProt Q9C169)
Assay: SEC; Superdex 75 HR 10/300 on FPLC; TDC3 1 mg/mL injected, 0.75 mL/min; mass from gel filtration standards

C-terminal domain of catalase-3 (CAT-3) of Neurospora crassa (TDC3) (from UniProt Q9C169 568-719) (domain or fragment)
stoichiometry N: 2
